Test results reported in patent publication US20250057918A1 (YALE UNIVERSITY, published 2025).

T1: human IL-18BP (amino acids 31-194) (human, UniProt O95998 31-194, biotinylated on the AviTag (BirA ligase) where immobilized or used for staining)
T1 construct: Secreted decoy receptor; made in insect cells (gp67 signal peptide); also called hIL-18BP
T1 sequence: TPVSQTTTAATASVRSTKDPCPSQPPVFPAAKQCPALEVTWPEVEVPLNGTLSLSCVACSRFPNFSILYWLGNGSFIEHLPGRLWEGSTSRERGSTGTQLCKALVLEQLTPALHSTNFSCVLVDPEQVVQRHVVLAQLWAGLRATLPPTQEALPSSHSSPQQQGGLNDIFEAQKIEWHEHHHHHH

T2: IL-18 receptor (IL-18R) on HEK-Blue IL-18 reporter cells (UniProt Q13478 19-541; O95256 20-599, limits assumed)
T2 sequence (looked up) 1: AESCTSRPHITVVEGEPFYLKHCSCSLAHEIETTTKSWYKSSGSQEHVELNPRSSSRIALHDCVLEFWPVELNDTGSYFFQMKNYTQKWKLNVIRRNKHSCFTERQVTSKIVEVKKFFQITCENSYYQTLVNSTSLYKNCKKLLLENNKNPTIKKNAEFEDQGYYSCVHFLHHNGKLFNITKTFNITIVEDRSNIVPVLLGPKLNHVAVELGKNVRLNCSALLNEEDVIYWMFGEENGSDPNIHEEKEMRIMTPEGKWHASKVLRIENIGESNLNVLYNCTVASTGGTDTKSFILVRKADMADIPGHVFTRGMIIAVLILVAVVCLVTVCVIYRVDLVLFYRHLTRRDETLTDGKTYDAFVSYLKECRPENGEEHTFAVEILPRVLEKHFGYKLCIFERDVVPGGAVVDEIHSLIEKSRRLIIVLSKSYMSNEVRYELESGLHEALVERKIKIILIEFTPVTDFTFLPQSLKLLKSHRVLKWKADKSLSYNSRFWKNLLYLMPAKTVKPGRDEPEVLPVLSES
T2 sequence (looked up) 2: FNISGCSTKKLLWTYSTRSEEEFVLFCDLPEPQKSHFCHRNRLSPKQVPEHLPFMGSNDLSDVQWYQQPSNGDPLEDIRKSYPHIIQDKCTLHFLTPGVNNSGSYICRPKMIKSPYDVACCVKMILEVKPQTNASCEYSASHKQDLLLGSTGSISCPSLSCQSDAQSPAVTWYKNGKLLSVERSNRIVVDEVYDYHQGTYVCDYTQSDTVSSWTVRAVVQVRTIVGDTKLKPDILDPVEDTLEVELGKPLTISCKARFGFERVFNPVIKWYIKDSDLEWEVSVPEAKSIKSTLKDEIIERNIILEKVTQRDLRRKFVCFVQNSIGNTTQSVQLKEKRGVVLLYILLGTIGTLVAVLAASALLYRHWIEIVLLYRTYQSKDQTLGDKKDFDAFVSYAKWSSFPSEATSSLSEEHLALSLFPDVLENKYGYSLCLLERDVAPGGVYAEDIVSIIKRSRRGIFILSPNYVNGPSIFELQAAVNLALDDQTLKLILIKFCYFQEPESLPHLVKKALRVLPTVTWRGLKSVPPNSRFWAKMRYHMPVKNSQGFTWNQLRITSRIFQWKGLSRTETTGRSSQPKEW

T3: mouse IL-18BP (amino acids 31-194) (mouse, UniProt Q9Z0M9 29-193, biotinylated on the AviTag (BirA ligase))
T3 construct: Secreted decoy receptor; made in Expi293 cells (H7 signal peptide); the stated range is the same as for the human protein; also called mIL-18BP
T3 sequence: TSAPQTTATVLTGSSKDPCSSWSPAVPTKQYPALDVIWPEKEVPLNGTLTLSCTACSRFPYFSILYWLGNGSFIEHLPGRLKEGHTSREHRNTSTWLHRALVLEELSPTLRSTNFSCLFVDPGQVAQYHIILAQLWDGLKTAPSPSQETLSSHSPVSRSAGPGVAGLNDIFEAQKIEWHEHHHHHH

T4: mouse IL-18Rα ectodomain (amino acids 19-329) (mouse, UniProt Q61098 19-329, biotinylated on the AviTag (BirA ligase))
T4 construct: range 19-329; Secreted from Expi293 cells (H7 signal peptide); also called mIL-18Rα; Ra
T4 sequence: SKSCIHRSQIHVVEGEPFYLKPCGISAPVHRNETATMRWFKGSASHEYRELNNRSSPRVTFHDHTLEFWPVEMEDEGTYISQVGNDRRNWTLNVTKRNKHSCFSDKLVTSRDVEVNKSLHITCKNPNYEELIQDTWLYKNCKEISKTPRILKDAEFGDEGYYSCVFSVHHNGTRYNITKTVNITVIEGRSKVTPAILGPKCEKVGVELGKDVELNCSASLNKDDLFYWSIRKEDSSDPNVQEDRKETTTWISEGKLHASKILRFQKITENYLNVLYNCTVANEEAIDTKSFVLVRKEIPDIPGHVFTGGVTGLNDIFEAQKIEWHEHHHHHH


Columns and labels:
[1] = target: T1, human IL-18BP (amino acids 31-194); assay: on-yeast isotherms; KD IL-18BP / KD IL-18Rα (20 µM used for NBD)
[2] = target: T1, human IL-18BP (amino acids 31-194); assay: SPR; KD BP / KD Ra normalized to WT IL-18
[3] = target: T2, IL-18 receptor (IL-18R) on HEK-Blue …; assay: cell-based or functional assay
[4] = target: T1, human IL-18BP (amino acids 31-194); assay: SPR; KD IL-18BP / KD IL-18Rα; SPR; ratio of two KDs
Protocol: (§1) Experiments were conducted using a Biacore™ T100 (Protein analysis interaction system) and carried out at 25° C. Biotinylated IL-18Rα or TL-18BP were immobilized onto a Biacore™ biotin capture chip (Series S CAP sensor chip, GE Healthcare) to yield an Rmax of ˜50 RU (IL-18Rα) or ˜10 RU (IL-18BP). Measurements were made with serial dilutions of the IL-18 variants in HEPES buffered Saline-P+ buffer (10 mM HEPES pH 7.4, 150 mM NaCl, 0.005% surfactant P20). The surface was regenerated by three 60-see injections of regeneration buffer (3/4 (v/v) 8M guanidine hydrochloride with 1/4 (v/v) 1M sodium hydroxide). Experiments were performed in multiple channels simultaneously for increased observations. All data were analyzed with the Biacore™ T100 evaluation software version 2.0 with a 1:1 Langmuir binding model.
To additionally characterize the receptor binding activities of the DR-IL-18 variants, the cytokines were expressed recombinantly and surface plasmon resonance for IL-18Rα and IL-18BP was performed (see FIG. 5B for representative traces).

[5] = target: T1, human IL-18BP (amino acids 31-194); assay: on-yeast isotherms; KD IL-18BP / KD IL-18Rα; on-yeast isotherms; ratio of two KDs
[6] = target: T3, mouse IL-18BP (amino acids 31-194); assay: SPR; KD IL-18BP / KD IL-18Rα; SPR; ratio of two KDs
Protocol: By contrast, very little binding is observed with the same variants and mIL-18BP (right). (FIG. 11B) Representative surface plasmon resonance sensorgrams between immobilized biotinylated mIL-18BP and the murine DR-IL-18 variants.
as §1

[7] = target: T3, mouse IL-18BP (amino acids 31-194); assay: on-yeast isotherms; KD IL-18BP / KD IL-18Rα (10 µM used for NBD); on-yeast isotherms; 10 µM put in for NBD
[8] = target: T4, mouse IL-18Rα ectodomain (amino acids …); assay: flow cytometry, mIL-18Rα titrated on yeast-displayed murine IL-18 variant (binding isotherm, %Max)
[9] = target: T3, mouse IL-18BP (amino acids 31-194); assay: SPR; KD BP / KD Ra normalized to WT IL-18

Binder | KD ratio: IL-18BP/IL-18Rα [1] | IL-18 BP:Ra Dissociation Constant Ratio [2] | KD ratio: IL-18BP/IL-18Rα [6] | KD ratio: IL-18BP/IL-18Rα [7] | further results
6-12 (ligand, recombinant with C-terminal hexahistidine tag in SPR and cell assays; also called h6-12; version 2.0 human DR-IL-18 variant) YFGKLESKLSVIRNLNDQVLFIDQGNRPLFEDMTDSDCRDNAPRTIFIISKYSDSLARGLAVTISVKCEKISTLSCENKIISFKEMNPPDNIKDTKSDIIFFQRDVPGHSRKMQFESSSYEGYFLACEKERDLFKLILKKEDELGDRSIMFTVQNED | 1200 | > 9.32e+06 |  |  | EC50 (read off the curve); HEK-Blue IL-18 SEAP reporter, OD 655 nM [3]: ~0.6 nM
6-27 (ligand, recombinant with C-terminal hexahistidine tag in SPR and cell assays; also called h6-27; version 2.0 human DR-IL-18 variant) YFGKLESKLSVIRNLNDQVLFIDQGNRPLFEDMTDSDCRDNAPRTIFIISKYSDSRARGLAVTISVKCEKISTLSCENKIISFKEMNPPDNIKDTKSDIIFFARSVPGHGRKTQFESSSYEGYFLACEKERDLFKLILKKEDELGDRSIMFTVQNED | 480 | > 5.86e+06 |  |  | EC50 (read off the curve); HEK-Blue IL-18 SEAP reporter, OD 655 nM [3]: ~1 nM
hB9 (ligand) RFGKHESKLSVIRNLNDQVLFIDQGNRPLFEDMTDSDCRDNAPRTIFIISTYRDSQPRGKAVTISVKCEKISTLSCENKIISFKEMNPPDNIKDTKSDIIFFERNVPGHKYKMQFESSSYEGYFLACEKERDLFKLILKKEDELGDRSIMFTVQNED | > 157 |  |  |  | 
6-31 (ligand, recombinant with C-terminal hexahistidine tag in SPR and cell assays; also called h6-31; version 2.0 human DR-IL-18 variant) YFGKLESKLSVIRNLNDQVLFIDQGNRPLFEDMTDSDCRDNAPRTIFIISKYGDSGARGLAVTISVKCEKISTLSCENKIISFKEMNPPDNIKDTKSDIIFFERDVPGHSGKVQFESSSYEGYFLACEKERDLFKLILKKEDELGDRSIMFTVQNED | 490 | > 1.06e+06 |  |  | EC50 (read off the curve); HEK-Blue IL-18 SEAP reporter, OD 655 nM [3]: ~4 nM
hA8 (ligand, also called human DR-IL-18 variant A8) YFGKLESRLSVIRNLNDQVLFIDQGNRPLFEDMTDSDCRDNAPRTIFIISKYKDKQPRAQAVTISVKCEKISTLSCENKIISFKEMNPPDNIKDTKSDIIFFQRDVPGHKHKMQFESSSYEGYFLACEKERDLFKLILKKEDELGDRSIMFTIQNED | > 347 |  |  |  | 
hCS3 (ligand, recombinant with C-terminal hexahistidine tag in SPR and cell assays) RFGKLESKLSVIRNLNDQVLFIDQGNRPLFEDMTDSDCRDNAPRTIFIISTYKDSQPRGKAVTISVKCEKISTLSCENKIISFKEMNPPDNIKDTKSDIIFFQRDVPGHKHKMQFESSSYEGYFLACEKERDLFKLILKKEDELGDRSIMFTVQNED |  | 4350 |  |  | KD ratio: IL-18BP/IL-18Rα [4]: 2.27; KD ratio: IL-18BP/IL-18Rα [5]: 103
hH3 (ligand) RFGKLESRLSVIRNLNDQVLFIDQGNRPLFEDMTDSDCRDNAPRTIFIISTYKDSQPRGKAVTISVKCEKISTLSCENKIISFKEMNPPDNIKDTKSDIIFFQRDVPGHKHKMQFESSSYEGYFLACEKERDLFKLILKKEDELGDRSIMFTVQNED | > 239 |  |  |  | 
mB1 (ligand, recombinant with C-terminal hexahistidine tag in SPR) HFGRLHCTTAVIRNINDQVLFVDKRQPVFEDMTDIDQSASEPQTRLIIYGYADSDARAKAVTLSVKDSKMSTLSCKNKIISFEEMDPPENIDDIQSDLIFFQKSVPGHNKMEFESSLYEGHFLACQKEDDAFKLILKKKDENGDKSVMFTVTNLHQS |  |  | 21000 | > 559 | EC50 (read off the curve) [8]: ~20 nM
mCS1 (ligand, recombinant with C-terminal hexahistidine tag in SPR) NFGRLHCTTAVIRNINDQVLFVDKRQPVFEDMTDIDQSASEPQTRLIIYGYADSRVRGKAVTLSVKDSKMSTLSCKNKIISFEEMDPPENIDDIQSDLIFFQKRVPGHNKMEFESSLYEGHFLACQKEDDAFKLILKKKDENGDKSVMFTLTNLHQS |  |  | 7040 | > 935 | EC50 (read off the curve) [8]: ~10 nM
mCS2 (ligand, recombinant with C-terminal hexahistidine tag in SPR; also called DR-IL-18 (mCS2); DR-18 variant mCS2) HFGRLHCTTAVIRNINDQVLFVDKRQPVFEDMTDIDQSASEPQTRLIIYAYGDSRARGKAVTLSVKDSKMSTLSCKNKIISFEEMDPPENIDDIQSDLIFFQKRVPGHNKMEFESSLYEGHFLACQKEDDAFKLILKKKDENGDKSVMFTLTNLHQS |  |  | 133000 | > 885 | IL-18 BP:Ra Dissociation Constant Ratio [9]: > 7.5e+07; EC50 (read off the curve) [8]: ~10 nM
mC1 (ligand, recombinant with C-terminal hexahistidine tag in SPR) NFGRLHCTTAVIRNINDQVLFVDKRQPVFEDMTDIDQSASEPQTRLIIYAYVDRRLRGKAVTLSVKDSKMSTLSCKNKIISFEEMDPPENIDDIQSDLIFFQKKVPGHNKMEFESSLYEGHFLACQKEDDAFKLILKKKDENGDKSVMFTLTNLHQS |  |  | 26300 | > 233 | 
